Literature values, collected in patent US20160282364A1, “ASSAY FOR INSULIN-DEGRADING ENZYME (IDE) INHIBITORS” (PRESIDENT AND FELLOWS OF HARVARD COLLEGE, priority 2013, published 2016).

Test system: IDE

B1: insulin-like peptide 3 (protein, UniProt P51460 21-55; P51460 106-131, looked up)
Insulin-like 3 B chain: LGPAPTPEMREKLCGHHFVRALVRVCGGPRWSTEA
Insulin-like 3 A chain: AAATNPARYCCLSGCTQQDLLTLCPY
modifications: Insulin-like 3
notes: IDE substrate in vitro
In the case of B1, the Km (IDE substrate) is listed as 0.055 µM, the kcat (IDE substrate) is listed as 0.0025 s⁻¹ and the Degradation (degradation kinetics compared to insulin) is listed as “Fast”.
